This note sets out measurements from IntAct's records for PubMed 19617556.

The labels stand for the following.
B1: DCN1-like protein 3 (Homo sapiens), Q8IWE4 (parent)
chain: MGQCVTKCKNPSSTLGSKNGDREPSNKSHSRRGAGHREEQVPPCGKPGGDILVNGTKKAEAATEACQLPTSSGDAGRESKSNAEESSLQRLEELFRRYKDEREDAILEEGMERFCNDLCVDPTEFRVLLLAWKFQAATMCKFTRKEFFDGCKAISADSIDGICARFPSLLTEAKQEDKFKDLYRFTFQFGLDSEEGQRSLHREIAIALWKLVFTQNNPPVLDQWLNFLTENPSGIKGISRDTWNMFLNFTQVIGPDLSNYSEDEAWPSLFDTFVEWEMERRKREGEGRGALSSGPEGLCPEEQT

Variants of B1 are the subject of this assay. The conditions noted are these: with cul3_human CUL3, Q13618.
Turning to D241A;A265R;D271A, the “effect of a mutation on the interaction” value is reported as “disrupting interaction strength”.
